B3: CD95 immunoadhesin (Fc fusion, UniProt P25445 26-173, looked up)
chain: QVTDINSKGLELRKTVTTVETQNLEGLHHDGQFCHKPCPPGERKARDCTVNGDEPDCVPCQEGKEYTDKAHFSSKCRRCRLCDEGHGLEVEINCTRTQNTKCRCKPNFFCNSTVCEHCDPCTKCEHGIIKECTLTSNTKCKEEGSRSN
notes: extracellular domain; also called Fas-IgG; CD95-IgG; not shown: hinge and Fc portion of human IgG, as described in Ashkenazi et al. 1991
B4: full-length DNA19355 polypeptide on cells (ligand)
chain: MCLSHLENMPLSHSRTQGAQRSSWKLWLFCSIVMLLFLCSFSWLIFIFLQLETAKEPCMAKFGPLPSKWQMASSEPPCVNKVSDWKLEILQNGLYLIYGQVAPNANYNDVAPFEVRLYKNKDMIQTLTNKSKIQNVGGTYELHVGDTIDLIFNSEHQVLKNNTYWGIILLANPQFIS
notes: also called DNA19355 ligand; polypeptide encoded by DNA19355-1150

Key:
[1] = target: B4; experiment: FACS on 293 cells transiently transfected with full-length DNA19355
Experimental: In another assay, human 293 cells were transiently transfected with full-length DNA19355 and the ability of receptor immunoadhesin constructs for PRO364, TNFR1, HVEM, and DcR1 to t bind to those transfected cells was determined by FACS analysis. The 293 cells were maintained in high glucose DMEM media supplemented with 10% fetal bovine serum (FBS), 2 mM glutamine, 100 microgram/ml penicillin, and 100 microgram/ml streptomycin. The transfected cells (1×10⁵) were incubated for 60 minutes at 4° C. in 200 microliters 2% FBS/PBS with 1 microgram of the respective receptor or ligand immunoadhesin. The cells were then washed with 2% FBS/PBS, stained with R-phycoerythrin-conjugated goat anti-human antibody (Jackson Immunoresearch, West Grove, Pa.). Next, the cells were analyzed by FACS. To test the binding of the respective immunoadhesins to the transiently transfected cells, an expression vector (pRK5-CD4; Smith et al., Science, 328:1704-1707 (1987)) for CD4 was co-transfected with DNA19355 expression vector (see above). FITC-conjugated anti-CD4 (Pharmingen, San Diego, Calif.) was then used to identify and gate the transfected cell population in the FACS analysis.

DR4 immunoadhesin = target: T1, DR4 immunoadhesin (human, UniProt O00220 24-239, limits assumed); experiment: co-precipitation with protein A-sepharose, SDS-PAGE, autoradiography
T1 construct: extracellular domain; also called DR4-IgG; not shown: hinge and Fc portion of human IgG, as described in Ashkenazi et al. 1991
T1 sequence (looked up): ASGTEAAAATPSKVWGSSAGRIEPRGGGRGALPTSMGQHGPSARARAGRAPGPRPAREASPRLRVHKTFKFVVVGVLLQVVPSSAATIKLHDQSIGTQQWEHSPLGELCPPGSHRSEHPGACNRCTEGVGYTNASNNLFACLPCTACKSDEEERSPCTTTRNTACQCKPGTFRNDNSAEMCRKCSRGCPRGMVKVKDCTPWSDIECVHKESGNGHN
Experimental: (§1) The soluble DNA19355 ECD molecule was then labeled with […], for testing its ability to interact with the PRO364 immunoadhesin. For comparison, immunoadhesin constructs were also made of the following TNF receptor family members: CD95, DR4, DR5, TNFR1, TNFR2, and Apo-3. CD95, DR4, DR5, TNFR1, TNFR2, and Apo-3 immunoadhesins were prepared by fusing each receptor's ECD to the hinge and Fc portion of human IgG, as described previously for TNFR1 [Ashkenazi et al., Proc. Natl. Acad. Sci., 88:10535-10539 (1991)]. The respective TNF receptor family members are described (and relevant references cited) in the Background of the Invention section.
(§2) For the co-precipitation assay, each immunoadhesin (5 microgram) was incubated with ¹²⁵I-labeled soluble DNA19355 polypeptide (1 microgram) for 1 hour at 24° C., followed by protein A-sepharose for 30 minutes on ice. The reaction mixtures were spun down and washed several times in PBS, boiled in SDS-PAGE buffer containing 20 mM dithiothreitol and then resolved by SDS-PAGE and autoradiography.

Apo-3 immunoadhesin = target: T2, Apo-3 immunoadhesin (human, UniProt Q93038 25-199); experiment: as above
T2 construct: extracellular domain; also called Apo-3-IgG; DR3; not shown: hinge and Fc portion of human IgG, as described in Ashkenazi et al. 1991
T2 sequence (looked up): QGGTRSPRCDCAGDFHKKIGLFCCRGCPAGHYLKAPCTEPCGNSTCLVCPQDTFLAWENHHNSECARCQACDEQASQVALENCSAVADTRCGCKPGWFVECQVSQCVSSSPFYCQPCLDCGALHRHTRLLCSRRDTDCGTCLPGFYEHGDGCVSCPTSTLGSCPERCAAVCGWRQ
Experimental: as §1, §2

CD95 immunoadhesin = target: B3; experiment: as above
Experimental: as §1, §2

DR5 immunoadhesin = target: T3, DR5 immunoadhesin (human, UniProt O14763 56-210, limits assumed); experiment: as above
T3 construct: extracellular domain; also called DR5-IgG; Apo-2; not shown: hinge and Fc portion of human IgG, as described in Ashkenazi et al. 1991
Experimental: as §1, §2

TNFR1 immunoadhesin [2] = target: T4, TNFR1 immunoadhesin (human, UniProt P19438 30-211, limits assumed); experiment: as above
T4 construct: extracellular domain; also called TNFR1-IgG; not shown: hinge and Fc portion of human IgG, as described in Ashkenazi et al. 1991
T4 sequence (looked up): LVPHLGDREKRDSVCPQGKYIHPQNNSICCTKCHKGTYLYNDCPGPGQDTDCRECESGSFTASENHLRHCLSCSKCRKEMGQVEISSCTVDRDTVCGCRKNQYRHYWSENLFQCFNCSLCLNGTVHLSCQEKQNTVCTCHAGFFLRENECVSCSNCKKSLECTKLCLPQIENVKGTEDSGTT
Experimental: as §1, §2

TNFR2 immunoadhesin = target: T5, TNFR2 immunoadhesin (human, UniProt P20333 23-257, limits assumed); experiment: as above
T5 construct: extracellular domain; also called TNFR2-IgG; not shown: hinge and Fc portion of human IgG, as described in Ashkenazi et al. 1991
T5 sequence (looked up): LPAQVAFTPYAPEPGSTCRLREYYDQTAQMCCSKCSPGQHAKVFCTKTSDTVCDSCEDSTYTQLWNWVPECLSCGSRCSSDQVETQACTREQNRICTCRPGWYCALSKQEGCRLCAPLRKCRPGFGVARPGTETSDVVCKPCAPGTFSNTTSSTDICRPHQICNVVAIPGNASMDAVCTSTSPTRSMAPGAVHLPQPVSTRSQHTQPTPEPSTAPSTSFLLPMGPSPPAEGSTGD
Experimental: as §1, §2

[3] = target: B4; experiment: FACS on HUVEC (endogenous DNA19355 transcripts)
Experimental: (§3) The DNA19355 polypeptide was identified in a human umbilical vein endothelial cell (HUVEC) library, and the DNA19355 polypeptide transcripts are readily detectable in HUVEC by RT-PCR (data not shown). […] HUVEC were purchased from Cell Systems (Kirkland, Wash.) and grown in a 50:50 mix of Ham's F12 and Low Glucose DMEM media containing […] fetal bovine serum, 2 mM L-glutamine, 10 mM Hepes, and 10 ng/ml basic FGF. Cells were FACS sorted with PBS, PRO364-IgG, TNFR1-IgG or Fas-IgG as a primary antibody and goat anti-human F(ab′)2 conjugated to phycoerythrin (CalTag, Burlingame, Calif.).

TNFR1 immunoadhesin [4] = target: T4, TNFR1 immunoadhesin; experiment: FACS on HUVEC (endogenous DNA19355 transcripts)
Experimental: as §3

B1: PRO364-IgG (PRO364 extracellular domain immunoadhesin) (Fc fusion)
chain: QRPTGGPGCGPGRLLLGTGTDARCCRVHTTRCCRDYPGEECCSEWDCMCVQPEFHCGDPCCTTCRHHPCPPGQGVQSQGKFSFGFQCIDCASGTFSGGHEGHCKPWTDCTQFGFLTVFPGNKTHNAVCVPGSPPAE
notes: Expressed in insect cells with Baculovirus; also called PRO364 immunoadhesin; PRO364 ECD C-terminus IgG-Fc tagged form; not shown: IgG Fc fused at the C-terminus
binding result [1]: binds

B2: soluble DNA19355 polypeptide (ECD, His10-tagged, 125I-labeled) (ligand)
chain: MGHHHHHHHHHHSSGHIDDDDKHMETAKEPCMAKFGPLPSKWQMASSEPPCVNKVSDWKLEILQNGLYLIYGQVAPNANYNDVAPFEVRLYKNKDMIQTLTNKSKIQNVGGTYELHVGDTIDLIFNSEHQVLKNNTYWGIILLANPQFIS
modifications: 125I-labeled (radioiodinated)
notes: Expressed in E. coli and purified on Nickel-sepharose; Removal of the tag is not reported; also called soluble DNA19355 ECD molecule; radioiodinated DNA19355 polypeptide
binding result (DR4 immunoadhesin): no binding
binding result (Apo-3 immunoadhesin): no binding
binding result (CD95 immunoadhesin): no binding
binding result (DR5 immunoadhesin): no binding
binding result (TNFR1 immunoadhesin [2]): no binding
binding result (TNFR2 immunoadhesin): no binding

B3
binding result [3]: no binding

B4
binding result (TNFR1 immunoadhesin [4]): no binding
